The values that follow come from patent US10253076B2, “Peptides and combination of peptides for use in immunotherapy against ovarian cancer and other cancers” (immatics biotechnologies GmbH, priority 2015, dated 2019).

The target of this assay is HLA-A*02:01 (Homo sapiens, UniProt P04439, D140Y/D185E/D98H/E176V/E277Q/G131W/G231S/I119V/I121R/I166T/I218V/L300P/L318F/N151K/N90K/P208A/P217A/Q86G/Q94H/R138H/R169H/T345S). The assay is described as follows: MHC binding assay (UV-ligand exchange, beta2m ELISA, peptide exchange yield). The settings on record: binding of HLA-class I restricted peptides to HLA-A*02:01, ranged by peptide exchange yield (UV-ligand exchange, β2m ELISA). From the text:
Candidate peptides for T cell based therapies according to the present invention were further tested for their MHC binding capacity (affinity). The individual peptide-MHC complexes were produced by UV-ligand exchange, where a UV-sensitive peptide is cleaved upon UV-irradiation, and exchanged with the peptide of interest as analyzed. Only peptide candidates that can effectively bind and stabilize the peptide-receptive MHC molecules prevent dissociation of the MHC complexes. To determine the yield of the exchange reaction, an ELISA was performed based on the detection of the light chain (β2m) of stabilized MHC complexes. The assay was performed as generally described in Rodenko et al. (Rodenko et al., 2006).
96 well MAXISorp plates (NUNC) were coated over night with 2ug/ml streptavidin in PBS at room temperature, washed 4× and blocked for 1 h at 37° C. in 2% BSA containing blocking buffer. […] Peptide-MHC monomers of the UV-exchange reaction were diluted 100 fold in blocking buffer. Samples were incubated for 1 h at 37° C., washed four times, incubated with 2ug/ml HRP conjugated anti-82m for 1 h at 37° C., washed again and detected with TMB solution that is stopped with […]. Absorption was measured at 450 nm. Candidate peptides that show a high exchange yield (preferably higher than 50%, most preferred higher than 75%) are generally preferred for a generation and production of antibodies or fragments thereof, and/or T cell receptors or fragments thereof, as they show sufficient avidity to the MHC molecules and prevent dissociation of the MHC complexes.
On the technique in general: In an ELISA, binding on a coated surface is turned into a signal by an enzyme label.

“281 (ILRESTEEL; listed as Homo sapiens) [compound 281]”: the Peptide exchange result was “″+++″ (≥50% = +++)”.
Then “611 (YLLDDGTLVV; listed as Homo sapiens) [compound 611]”, with “″++++″ (≥75% = ++++)”; and “219 (KLSDIGITV; listed as Homo sapiens) [compound 219]”, with “″+++″ (≥50% = +++)”; and “351 (SLIPNLRNV; listed as Homo sapiens) [compound 351]”, with “″+++″ (≥50% = +++)”.
Consider “148 (ALNPEIVSV; listed as Homo sapiens) [compound 148]”, for which the Peptide exchange entry is “″++″ (≥20% = ++)”.
The value for “97 (SLINGSFLV; listed as Homo sapiens) [compound 97]” was “″+++″ (≥50% = +++)”.
The value for “383 (ALLELENSVTL; listed as Homo sapiens) [compound 383]” was “″+++″ (≥50% = +++)”; that for “582 (TLCDVILMV; listed as Homo sapiens) [compound 582]” was “″+++″ (≥50% = +++)”.
The value for “225 (SLLKVLPAL; listed as Homo sapiens) [compound 225]” was “″+++″ (≥50% = +++)”; that for “375 (SLTETIEGV; listed as Homo sapiens) [compound 375]” was “″++″ (≥20% = ++)”.
“403 (KLYDRILRV; listed as Homo sapiens) [compound 403]”: the Peptide exchange result is reported as “″++″ (≥20% = ++)”.
Turning to “437 (SMAPGLVIQAV; listed as Homo sapiens) [compound 437]”, the Peptide exchange result is reported as “″+++″ (≥50% = +++)”.
With “209 (KLIESKHEV; listed as Homo sapiens) [compound 209]”, the Peptide exchange entry is “″++″ (≥20% = ++)”.
The value for “506 (KLLGKVETA; listed as Homo sapiens) [compound 506]” was “″+++″ (≥50% = +++)”; that for “304 (MTLGQIYYL; listed as Homo sapiens) [compound 304]” was “″+++″ (≥50% = +++)”.
As for “550 (FLYDEIEAEVNL; listed as Homo sapiens) [compound 550]”, the Peptide exchange entry is recorded as “″+++″ (≥50% = +++)”.
Then “277 (LLPPLESLATV; listed as Homo sapiens) [compound 277]”, with “″++″ (≥20% = ++)”.
The value for “221 (ALYEEGLLL; listed as Homo sapiens) [compound 221]” was “″++″ (≥20% = ++)”.
The value for “329 (FLVTLNNVEV; listed as Homo sapiens) [compound 329]” was “″++++″ (≥75% = ++++)”.
For the substance “517 (LLMPIPEGLTL; listed as Homo sapiens) [compound 517]”, the Peptide exchange result was “″+++″ (≥50% = +++)”.
Then “117 (ILPDGEDFLAV; listed as Homo sapiens) [compound 117]”, with “″+++″ (≥50% = +++)”; and “599 (YLLNDASLISV; listed as Homo sapiens) [compound 599]”, with “″+++″ (≥50% = +++)”.
The value for “231 (FLSPQQPPLLL; listed as Homo sapiens) [compound 231]” was “″++″ (≥20% = ++)”.
The value for “234 (ALMEDTGRQML; listed as Homo sapiens) [compound 234]” was “″++″ (≥20% = ++)”; that for “426 (RLADKSVLV; listed as Homo sapiens) [compound 426]” was “″+++″ (≥50% = +++)”.
Take “376 (AMFESSQNVLL; listed as Homo sapiens) [compound 376]”: the Peptide exchange entry was “″++″ (≥20% = ++)”.
Then “265 (LLFGGTKTV; listed as Homo sapiens) [compound 265]”, with “″++″ (≥20% = ++)”; and “501 (LLDPNVKSIFV; listed as Homo sapiens) [compound 501]”, with “″+++″ (≥50% = +++)”; and “452 (ILLEHGADPNL; listed as Homo sapiens) [compound 452]”, with “″+++″ (≥50% = +++)”.
Then “139 (SVMEVNSGIYRV; listed as Homo sapiens) [compound 139]”, with “″+++″ (≥50% = +++)”; and “72 (SLLELDGINL; listed as Homo sapiens) [compound 72]”, with “″+++″ (≥50% = +++)”; and “327 (GLAPFTEGISFV; listed as Homo sapiens) [compound 327]”, with “″+++″ (≥50% = +++)”.
Then “573 (ILVANAIVGV; listed as Homo sapiens) [compound 573]”, with “″+++″ (≥50% = +++)”; and “543 (GLLPTPITQQASL; listed as Homo sapiens) [compound 543]”, with “″+++″ (≥50% = +++)”; and “266 (KITDTLIHL; listed as Homo sapiens) [compound 266]”, with “″+++″ (≥50% = +++)”.
In the case of “5 (HLTEVYPEL; listed as Homo sapiens) [compound 5]”, the Peptide exchange result is on record as “″+++″ (≥50% = +++)”.
Then “78 (SLFSSLEPQIQPV; listed as Homo sapiens) [compound 78]”, with “″+++″ (≥50% = +++)”; and “513 (SLWPSPEQL; listed as Homo sapiens) [compound 513]”, with “″++″ (≥20% = ++)”.
The value for “233 (VLSETLYEL; listed as Homo sapiens) [compound 233]” was “″++″ (≥20% = ++)”.
Then “334 (TLTKVLVAL; listed as Homo sapiens) [compound 334]”, with “″+++″ (≥50% = +++)”; and “181 (LLWAGTAFQV; listed as Homo sapiens) [compound 181]”, with “″+++″ (≥50% = +++)”.
Turning to “584 (ALAEVAAMENV; listed as Homo sapiens) [compound 584]”, the Peptide exchange entry is “″+++″ (≥50% = +++)”.
The value for “182 (MLLEAPGIFL; listed as Homo sapiens) [compound 182]” was “″+++″ (≥50% = +++)”.
Then “301 (FLVEDLVDSL; listed as Homo sapiens) [compound 301]”, with “″+++″ (≥50% = +++)”; and “574 (YLLQEPPRTV; listed as Homo sapiens) [compound 574]”, with “″++″ (≥20% = ++)”; and “223 (ALLENIALYL; listed as Homo sapiens) [compound 223]”, with “″+++″ (≥50% = +++)”.
For “537 (TLAPGEVLRSV; listed as Homo sapiens) [compound 537]”, the Peptide exchange result is reported as “″+++″ (≥50% = +++)”.
The value for “94 (YLIDIKTIAI; listed as Homo sapiens) [compound 94]” was “″++″ (≥20% = ++)”; that for “206 (VLQEGKLQKLAQL; listed as Homo sapiens) [compound 206]” was “″+++″ (≥50% = +++)”; that for “256 (FLPPEHTIVYI; listed as Homo sapiens) [compound 256]” was “″+++″ (≥50% = +++)”.
Then “503 (SLNHFTHSV; listed as Homo sapiens) [compound 503]”, with “″+++″ (≥50% = +++)”.
Then “456 (LLIGHLERV; listed as Homo sapiens) [compound 456]”, with “″+++″ (≥50% = +++)”.
Take “524 (ALIENLTHQI; listed as Homo sapiens) [compound 524]”: the Peptide exchange entry is listed as “″++″ (≥20% = ++)”.
The value for “432 (TLIEESAKV; listed as Homo sapiens) [compound 432]” was “″++″ (≥20% = ++)”; that for “282 (LLADVVPTT; listed as Homo sapiens) [compound 282]” was “″+++″ (≥50% = +++)”.
Then “523 (YQIPRTFTL; listed as Homo sapiens) [compound 523]”, with “″++″ (≥20% = ++)”; and “264 (SLQEQLHSV; listed as Homo sapiens) [compound 264]”, with “″+++″ (≥50% = +++)”.
Turning to “373 (SLLEDKGLAEV; listed as Homo sapiens) [compound 373]”, the Peptide exchange entry is “″++″ (≥20% = ++)”.
Then “160 (FLFDEEIEQI; listed as Homo sapiens) [compound 160]”, with “″+++″ (≥50% = +++)”.
On to “299 (YLLETSGNL; listed as Homo sapiens) [compound 299]”, for which the Peptide exchange entry is recorded as “″+++″ (≥50% = +++)”.
For the substance “576 (ILLNNSGQIKL; listed as Homo sapiens) [compound 576]”, the Peptide exchange entry is listed as “″++++″ (≥75% = ++++)”.
Regarding “13 (YLMDESLNL; listed as Homo sapiens) [compound 13]”, the Peptide exchange entry is recorded as “″+++″ (≥50% = +++)”.
Then “614 (LLLPDQPPYHL; listed as Homo sapiens) [compound 614]”, with “″+++″ (≥50% = +++)”; and “88 (FLLVGDLMAV; listed as Homo sapiens) [compound 88]”, with “″+++″ (≥50% = +++)”.
